Source: the supplement of paper PMC10567573
± gives the standard deviation.

Test: protein stability index of a GFP-peptide fusion (GPS, HEK-293T) (PSI 1-6); higher = more stable
[1] = treatment: DMSO, c terminus: a fixed tail appended
[2] = treatment: MLN4924 1 uM, 8 h, c terminus: a fixed tail appended
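Further: 24-mer peptide tiles fused after GFP, lentivirally expressed, FACS-sorted into six equal bins by GFP/DsRed ratio, decoded by Illumina sequencing, PSI is the read-weighted mean bin number.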

| Sequence | protein stability index [1] | protein stability index [2] | protein stability index (treatment: DMSO, c terminus: native) | protein stability index (treatment: MLN4924 1 uM, 8 h, c terminus: native) |
| --- | --- | --- | --- | --- |
| LEFFYGIATATEIAYYSYIYSVVD [SLC19A2] | 3.5 ± 0.48 | 3.27 ± 0.46 | – | – |
| GGFQMHYEKTPFDQLAFIEELFSL [EID1] | 2.12 ± 0.9 | – | – | – |
| SNSSQDSLHKGAKRKGIKSSIGRL [PPFIA4] | 4.17 ± 0.22 | 4.22 ± 0.16 | – | – |
| CTLPQLAIAWCLRNEGVSSVLLGA [KCNAB2] | 3.1 ± 0.63 | 2.89 ± 0.36 | – | – |
| GDELYEQSDEEQDSVKVALLETNP [CLPTM1] | 5.37 ± 0.19 | 5.44 ± 0.17 | – | – |
| APDPELAAEMYQRGRAVLREAGFH [RSAD1] | 3.92 ± 0.32 | 4.07 ± 0.22 | – | – |
| NSVCSKFRKEIKSKSADNQEYFER [RHOBTB1] | 4.26 ± 0.19 | 4.45 ± 0.32 | – | – |
| RSSSRINIPERASGPEGNLNQIVT [FAM104B] | 4.28 ± 0.27 | 4.36 ± 0.2 | – | – |
| AVFRFWAGGEKGPQAFPMSRLWDS [DNAAF3] | 2.14 ± 0.26 | 2.18 ± 0.22 | – | – |
| FDNPQVRFFLGDLCSRQDLYPALK [NSDHL] | 2.35 ± 0.29 | 2.25 ± 0.26 | – | – |
| SFHPLQYIGFYGKETTNTCILKCN [PDS5B] | 1.99 ± 0.44 | 2.27 ± 0.35 | – | – |
| MLATRNFSGGKSGGNKKSDGVKES [CAMK2A] | 4.51 ± 0.7 | 4.54 ± 0.12 | – | – |
| HFDLRDDDDAEEEGPKRELGVRRP [TCF25] | 5.32 ± 0.26 | 5.24 ± 0.3 | – | – |
| RTGLEKAAAGAVGLERRDWSPSPP [SPDEF] | 4.55 ± 0.2 | 4.49 ± 0.25 | – | – |
| SYNACGVLSHIMFDGPEAWGVCEP [ZER1] | 2.13 ± 0.45 | 2.44 ± 0.41 | – | – |
| PLLCPGCQGQPQGKAVVSHSKGHK [ELOA2] | 4.12 ± 0.43 | 4.53 ± 0.42 | – | – |
| TEQSSASRLMRRHKRRRRKQKVSR [DVL3] | 5.13 ± 0.24 | 5.16 ± 0.22 | – | – |
| KAQQEFAAGVFSNPAVRTAAANAA [SCAMP3] | 4.13 ± 0.11 | 4.11 ± 0.24 | – | – |
| NAVKYVSNIKFCSFHPLQYIGFYG [PDS5B] | 2.89 ± 0.25 | 2.35 ± 0.54 | – | – |
| VQAPRWGNPRALSFVLSSLQLGEG [OAS1] | 2.31 ± 0.2 | 2.24 ± 0.22 | – | – |
| EFKAAFDMFDADGGGDISVKELGT [TNNC2] | 4.16 ± 0.13 | 4.63 ± 0.11 | – | – |
| YTSSLACHRALQDAFSGLFWQPS [MNAT1] | – | – | 2.29 ± 0.51 | 2.01 ± 0.33 |
| PPKRMLGADREFIEARRRALKRFV [SNX8] | 3.36 ± 0.43 | 3.62 ± 0.17 | – | – |

| Sequence | protein stability index [1] | protein stability index [2] | protein stability index (treatment: DMSO, c terminus: native) | protein stability index (treatment: MLN4924 1 uM, 8 h, c terminus: native) |
| --- | --- | --- | --- | --- |
| VLERGDSAPATAKENAAAPSPVRA [PALM] | 5.3 ± 0.23 | 5.24 ± 0.078 | – | – |
| SRLLGSASPSSSVRLGSFRSPRAG [PRPH] | 4.08 ± 0.19 | 3.96 ± 0.18 | – | – |
| RSLGPRAPSLRRHVLIHNTLQQLQ [SERTAD3] | 2.64 ± 0.25 | 3.05 ± 0.19 | – | – |
| LLEATCPFGENAEFPADISSITEA [NFE2L1] | 4.48 ± 0.28 | 4.65 ± 0.17 | – | – |
| TCCESTQRSVSDVASGSTPAPALC [IRX6] | 4.48 ± 0.067 | 4.51 ± 0.11 | – | – |
| IVYATEKKQTKVEFPEARIFEETL [KCTD13] | 3 ± 0.11 | 2.85 ± 0.35 | – | – |
| APSLEAPKPSGLEPGPAAYGLKPL [KCTD13] | 4.45 ± 0.25 | 4.58 ± 0.1 | – | – |
| DVLENAFAPLLDEQYDLATKRVRQ [GOLPH3] | 3.43 ± 0.26 | 3.52 ± 0.5 | – | – |
| LNERKQASAIKKEELVARSETHAA [CHGB] | 5.48 ± 0.22 | 5 ± 0.23 | – | – |
| GKLKWNLAAVTPHDFIEHILRKLP [CCND2] | 2.61 ± 0.38 | 2.16 ± 0.18 | – | – |
| GHHERSIMTDLYYLSQTDGAGDWR [FUT8] | 3.2 ± 0.35 | 3.12 ± 0.24 | – | – |
| LNFCGPNVINHFYCDLPQLFQLSC [OR3A1] | 2.83 ± 0.51 | 2.6 ± 0.71 | – | – |
| ASLGDVQSGATISMPCSTDKENGE [SASS6] | 5.69 ± 0.17 | 5.62 ± 0.23 | – | – |
| AESFPGSQVMGSGRGSLSSGGQTS [PLEKHN1] | 4.81 ± 0.2 | 4.88 ± 0.25 | – | – |
| GNNLLVFGGTGIPFGESNGNGVHV [KLHDC10] | 2.66 ± 0.36 | 2.71 ± 0.41 | – | – |
| LLVINESIESIKWMIEEKATITSR [LURAP1L] | 2.38 ± 0.24 | 2.51 ± 0.3 | – | – |
| EEVPEAYVDIHTGLSGSGVAFVCA [PYCR3] | 2.76 ± 0.53 | 2.66 ± 0.43 | – | – |
| LQNNCTSSITRQKKRLQELALALK [TMEM120A] | 2.79 ± 0.15 | 2.83 ± 0.4 | – | – |
| QIEERHQEKKRKFLESTDSFNNEL [SMARCE1] | 4.82 ± 0.25 | 5.08 ± 0.37 | – | – |
| HHSLASSLRSHHTHPSYGPPGVPP [DVL3] | 3.51 ± 0.29 | 3.58 ± 0.22 | – | – |
| SLSTSSSSSPPGTPSPADAKAPPT [CEBPB] | 5.42 ± 0.15 | 5.34 ± 0.19 | – | – |
| NISCFFRLVDRDSVWGYDLGLRSL [MYORG] | 3.01 ± 0.41 | 2.95 ± 0.7 | – | – |
| EQQRKLETYLQNHFAEEERSKYDY [TENT5C] | 4.35 ± 0.16 | 4.47 ± 0.099 | – | – |

| Sequence | protein stability index [1] | protein stability index [2] | protein stability index (treatment: DMSO, c terminus: native) | protein stability index (treatment: MLN4924 1 uM, 8 h, c terminus: native) |
| --- | --- | --- | --- | --- |
| GRCELARVLHDFGLDGYRGYSLAD [SPACA3] | 2.62 ± 0.13 | 2.35 ± 0.32 | – | – |
| TRFILSKVPSEAPSPMPTHRSYLG [SLC6A17] | 2.73 ± 0.31 | 2.64 ± 0.26 | – | – |
| QSIIAIIRAMGRLKIDFGDSARAD [GNAI1] | 2.44 ± 0.53 | 2.29 ± 0.93 | – | – |
| MTLLPGDNSDYDYSALSCTSDASF [KCNG1] | 3.79 ± 0.27 | 3.87 ± 0.24 | – | – |
| LGDCMRTLGYMPTEMELLEVSQHI [CABP4] | 2.46 ± 0.31 | 2.57 ± 0.23 | – | – |
| CSQGQQLATFSSDWEIQEDSRLMC [CCDC3] | 3.16 ± 0.073 | 3.03 ± 0.55 | – | – |
| HAQVVEELSNFKSQKVLGLNEDPL [ZBED1] | 4.34 ± 0.28 | 4.44 ± 0.32 | – | – |
| AAPAGSLSRKKRLELDDNLDTERP [TRIB3] | 5.25 ± 0.33 | 5.27 ± 0.14 | – | – |
| MKDRTQELRTAKDSDDDDDVAVTV [STX1A] | 5.11 ± 0.33 | 5.43 ± 0.32 | – | – |
| LLIVKLEEDCAWSQELPPPDPGPS [ZNF263] | 2.33 ± 0.29 | 2.42 ± 0.29 | – | – |
| IFRSYSRGAQGVILVYDIANRWSF [RAB40A] | 2.53 ± 0.36 | 2.36 ± 0.35 | – | – |
| PESETSILLSWTPPRSDTIANYEL [PTPRD] | 3.09 ± 0.35 | 2.96 ± 0.39 | – | – |
| LELIEPLIKFQVGLKKLNLHEEEH [VDR] | 2.73 ± 0.21 | 2.9 ± 0.42 | – | – |
| MTVMSGENVDEASAAPGHPQDGSY [KCNA1] | 5.37 ± 0.21 | 5.12 ± 0.14 | – | – |
| SGAVGARRFLLCLYLVGFLDLFGV [MFSD9] | 2.99 ± 0.54 | 2.84 ± 0.37 | – | – |
| ETAIADAEQRGDNALKDARAKLDE [KRT71] | 5.57 ± 0.21 | 5.41 ± 0.54 | – | – |
| IKGKSCRTITFEQFQEALEELAKK [TPPP] | 2.53 ± 0.26 | 2.62 ± 0.36 | – | – |
| LLLLSKAKLVPSEREASPSNSCQD [IKZF1] | 3.31 ± 0.099 | 3.14 ± 0.15 | – | – |
| QAQKDPKKDRPLARRKSELPQDPH [PPP2R5C] | 5.12 ± 0.17 | 5.34 ± 0.17 | – | – |
| NSIAHYRQVNIRTANCTTANQNCV [KCNA1] | 3.17 ± 0.17 | 3.19 ± 0.27 | – | – |
| ALILHQRIHSGEKPYGCVECGKAF [ZNF24] | 2.17 ± 0.052 | 2.5 ± 0.4 | – | – |
| TINPLWHIRHLGWNPDARYSEHFL [GLT8D2] | 2.39 ± 0.22 | 2.32 ± 0.24 | – | – |
| HLGCAVYQDMIYAVGGRDDTTELS [KLHL20] | 3.39 ± 0.14 | 3.38 ± 0.17 | – | – |

| Sequence | protein stability index [1] | protein stability index [2] | protein stability index (treatment: DMSO, c terminus: native) | protein stability index (treatment: MLN4924 1 uM, 8 h, c terminus: native) |
| --- | --- | --- | --- | --- |
| SHYTSPSENMWNTGSTYNLSSGMA [CARM1] | 2.84 ± 0.37 | 3.14 ± 0.21 | – | – |
| VYEDETKVVHAVDGTAENGIHPLS [PALM] | 4.88 ± 0.24 | 5.11 ± 0.11 | – | – |
| SSSQEIPTMPQPIEKVSVSTQTKK [ZMYND11] | 5.33 ± 0.42 | 5.37 ± 0.23 | – | – |
| SFPRNNISYLVLSMISMGLFSIAP [JAGN1] | 3.32 ± 0.2 | 3.42 ± 0.42 | – | – |
| SPALQVMGPAQEAPVAEAWIPQAG [ZNF449] | 4.6 ± 0.086 | 4.65 ± 0.27 | – | – |
| HPCGDKNCPAHWLAQDWERCNTTC [ADAMTSL2] | 4.21 ± 0.14 | 3.99 ± 0.26 | – | – |
| LEVADFLIKAGADIELGCSTPLME [ANKRD17] | 2.89 ± 0.56 | 2.82 ± 0.22 | – | – |
| DLLRNTHFRGVSLNLTRKLAQQLC [DYRK1B] | 2.35 ± 0.48 | 2.22 ± 0.3 | – | – |
| MASLLEDLSHIEGLSQAPQPLADE [SERTAD1] | 4.82 ± 0.092 | 4.72 ± 0.1 | – | – |
| HLDPGFLASDKTSAGNAPLNEEIN [C18orf25] | 4.75 ± 0.29 | 4.97 ± 0.33 | – | – |
| AISSVERYDPQTNEWRMVASMSKR [KLHL20] | 3.71 ± 0.22 | 3.99 ± 0.21 | – | – |
| LRGLCANTVLRFLDLKGNNLRAAG [LRRC45] | 2.3 ± 0.24 | 2.24 ± 0.16 | – | – |
| PPPPPPPPAELKAEPGFEPADCKR [CEBPB] | 5.52 ± 0.16 | 5.4 ± 0.28 | – | – |
| INGSEGDGAEIAEKFVFFIGSKNG [DYNC2LI1] | 2.99 ± 0.21 | 3.4 ± 0.26 | – | – |
| SLGKQKVFIIRKSLLDELMEVQHF [SOAT2] | 2.58 ± 0.52 | 2.56 ± 0.73 | – | – |
| QKVAVYRALQAALAESGGSPDVLQ [TRADD] | 2.31 ± 0.36 | 2.4 ± 0.46 | – | – |
| AEISQPPALSQLVNLYLGRSHFLW [TCF25] | 2.67 ± 0.23 | 2.73 ± 0.44 | – | – |
| DEALERCQILELLNAELEEKMMQE [CCDC89] | 5.17 ± 0.41 | 5.34 ± 0.22 | – | – |
| LQYSTQVHTEFTLRNFNSAKDMKK [MATN2] | 3.73 ± 0.3 | 4.08 ± 0.32 | – | – |
| LDQLDESLRDKVLQLQKGSDTEAQ [INTS3] | 5.46 ± 0.12 | 5.31 ± 0.21 | – | – |
